Experimental data as given in the supplement of paper PMC5998384.

What was measured:
HeLa Kyoto [1] = assay: solubility change mitosis vs G1/S (difference of NP-40 vs SDS log2 ratios) (log2 ratio difference); higher = more soluble in mitosis
HeLa Kyoto [2] = assay: solubility in G1/S (NP-40 vs SDS abundance) (log2 ratio); higher = more soluble; conditions: cell cycle stage: G1/S
HeLa Kyoto [3] = assay: thermal stability score vs G1/S (z-score of summed log2 fold changes over temperatures); higher = more thermally stable than in G1/S
HeLa Kyoto [4] = assay: melting temperature (median over replicates), in situ; higher = more thermally stable
[5] = cell cycle stage: early G1 (4.5 h after nocodazole release)
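For melting temperature (median over replicates), in situ in this document: HeLa Kyoto cells synchronized by double thymidine or nocodazole block, proteins quantified by TMT10plex mass spectrometry, three independent biological replicates.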
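For solubility change mitosis vs G1/S (difference of NP-40 vs SDS log2 ratios) in this document: synchronized HeLa Kyoto cells (double thymidine block for G1/S, nocodazole release for mitosis), protein amounts in NP-40 versus SDS lysates quantified by mass spectrometry, three biological replicates.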
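For solubility in G1/S (NP-40 vs SDS abundance) in this document: HeLa Kyoto cells arrested at G1/S by double thymidine block, proteins quantified by TMT10plex mass spectrometry in mild NP-40 versus SDS extracts, three biological replicates.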
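For thermal stability score vs G1/S (z-score of summed log2 fold changes over temperatures) in this document: synchronized HeLa Kyoto cells, proteins quantified by TMT10plex mass spectrometry, three biological replicates, mitosis taken 0.5 h after nocodazole release, G1/S directly after double thymidine block.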

MYHSLSETRHPLQPEEQEVGIDPLSSYSNKSGGDSNKNGRRTSSTLDSEGTFNSYRKEWEELFVNNNYLATIRQKGINGQLRSSRFRSICWKLFLCVLPQDKSQWISRIEELRAWYSNIKEIHITNPRKVVGQQDLMINNPLSQDEGSLWNKFFQDKELRSMIEQDVKRTFPEMQFFQQENVRKILTDVLFCYARENEQLLYKQGMHELLAPIVFVLHCDHQAFLHASESAQPSEEMKTVLNPEYLEHDAYAVFSQLMETAEPWFSTFEHDGQKGKETLMTPIPFARPQDLGPTIAIVTKVNQIQDHLLKKHDIELYMHLNRLEIAPQIYGLRWVRLLFGREFPLQDLLVVWDALFADGLSLGLVDYIFVAMLLYIRDALISSNYQTCLGLLMHYPFIGDVHSLILKALFLRDPKRNPRPVTYQFHPNLDYYKARGADLMNKSRTNAKGAPLNINKVSNSLINFGRKLISPAMAPGSAGGPVPGGNSSSSSSVVIPTRTSAEAPSHHLQQQQQQQRLMKSESMPVQLNKGLSSKNISSSPSVESLPGGREFTGSPPSSATKKDSFFSNISRSRSHSKTMGRKESEEELEAQISFLQGQLNDLDAMCKYCAKVMDTHLVNIQDVILQENLEKEDQILVSLAGLKQIKDILKGSLRFNQSQLEAEENEQITIADNHYCSSGQGQGRGQGQSVQMSGAIKQASSETPGCTDRGNSDDFILISKDDDGSSARGSFSGQAQPLRTLRSTSGKSQAPVCSPLVFSDPLMGPASASSSNPSSSPDDDSSKDSGFTIVSPLDI [TBC1D5]
solubility change mitosis (log2) (HeLa Kyoto [1]): -0.272 | solubility in G1/S (log2) (HeLa Kyoto [2]): 0.207 | thermal stability score (HeLa Kyoto [3]; [5]): 0.296 | thermal stability score (HeLa Kyoto [3]; cell cycle stage: mitosis): 0.901 | melting temperature (HeLa Kyoto [4]; cell cycle stage: G1/S): 50.7 °C | melting temperature (HeLa Kyoto [4]; cell cycle stage: mitosis): 50.1 °C

MRRSEVLAEESIVCLQKALNHLREIWELIGIPEDQRLQRTEVVKKHIKELLDMMIAEEESLKERLIKSISVCQKELNTLCSELHVEPFQEEGETTILQLEKDLRTQVELMRKQKKERKQELKLLQEQDQELCEILCMPHYDIDSASVPSLEELNQFRQHVTTLRETKASRREEFVSIKRQIILCMEALDHTPDTSFERDVVCEDEDAFCLSLENIATLQKLLRQLEMQKSQNEAVCEGLRTQIRELWDRLQIPEEEREAVATIMSGSKAKVRKALQLEVDRLEELKMQNMKKVIEAIRVELVQYWDQCFYSQEQRQAFAPFCAEDYTESLLQLHDAEIVRLKNYYEVHKELFEGVQKWEETWRLFLEFERKASDPNRFTNRGGNLLKEEKQRAKLQKMLPKLEEELKARIELWEQEHSKAFMVNGQKFMEYVAEQWEMHRLEKERAKQERQLKNKKQTETEMLYGSAPRTPSKRRGLAPNTPGKARKLNTTTMSNATANSSIRPIFGGTVYHSPVSRLPPSGSKPVAASTCSGKKTPRTGRHGANKENLELNGSILSGGYPGSAPLQRNFSINSVASTYSEFAKDPSLSDSSTVGLQRELSKASKSDATSGILNSTNIQS [PRC1]
solubility change mitosis (log2) (HeLa Kyoto [1]): 0.431 | solubility in G1/S (log2) (HeLa Kyoto [2]): 0.0588 | thermal stability score (HeLa Kyoto [3]; [5]): 5.68 | thermal stability score (HeLa Kyoto [3]; cell cycle stage: mitosis): 7.18 | melting temperature (HeLa Kyoto [4]; cell cycle stage: G1/S): 47.1 °C | melting temperature (HeLa Kyoto [4]; cell cycle stage: mitosis): 49 °C

MAREKEMQEFTRSFFRGRPDLSTLTHSIVRRRYLAHSGRSHLEPEEKQALKRLVEEELLKMQVDEAASREDKLDLTKKGKRPPTPCSDPERKRFRFNSESESGSEASSPDYFGPPAKNGVAAEVSPAKEENPRRASKAVEESSDEERQRDLPAQRGEESSEEEEKGYKGKTRKKPVVKKQAPGKASVSRKQAREESEESEAEPVQRTAKKVEGNKGTKSLKESEQESEEEILAQKKEQREEEVEEEEKEEDEEKGDWKPRTRSNGRRKSAREERSCKQKSQAKRLLGDSDSEEEQKEAASSGDDSGRDREPPVQRKSEDRTQLKGGKRLSGSSEDEEDSGKGEPTAKGSRKMARLGSTSGEESDLEREVSDSEAGGGPQGERKNRSSKKSSRKGRTRSSSSSSDGSPEAKGGKAGSGRRGEDHPAVMRLKRYIRACGAHRNYKKLLGSCCSHKERLSILRAELEALGMKGTPSLGKCRALKEQREEAAEVASLDVANIISGSGRPRRRTAWNPLGEAAPPGELYRRTLDSDEERPRPAPPDWSHMRGIISSDGESN [HIRIP3]
solubility change mitosis (log2) (HeLa Kyoto [1]): 0.398 | solubility in G1/S (log2) (HeLa Kyoto [2]): 0.0105 | thermal stability score (HeLa Kyoto [3]; [5]): 0.379 | thermal stability score (HeLa Kyoto [3]; cell cycle stage: mitosis): 0.978 | melting temperature (HeLa Kyoto [4]; cell cycle stage: G1/S): 53 °C | melting temperature (HeLa Kyoto [4]; cell cycle stage: mitosis): 52.5 °C

MSGEENPASKPTPVQDVQGDGRWMSLHHRFVADSKDKEPEVVFIGDSLVQLMHQCEIWRELFSPLHALNFGIGGDGTQHVLWRLENGELEHIRPKIVVVWVGTNNHGHTAEQVTGGIKAIVQLVNERQPQARVVVLGLLPRGQHPNPLREKNRQVNELVRAALAGHPRAHFLDADPGFVHSDGTISHHDMYDYLHLSRLGYTPVCRALHSLLLRLLAQDQGQGAPLLEPAP [PAFAH1B3]
solubility change mitosis (log2) (HeLa Kyoto [1]): -0.0232 | solubility in G1/S (log2) (HeLa Kyoto [2]): 0.751 | thermal stability score (HeLa Kyoto [3]; [5]): 0.482 | thermal stability score (HeLa Kyoto [3]; cell cycle stage: mitosis): 1.01 | melting temperature (HeLa Kyoto [4]; cell cycle stage: G1/S): 50.6 °C | melting temperature (HeLa Kyoto [4]; cell cycle stage: mitosis): 51 °C

MALSAQQIPRWFNSVKLRSLINAAQLTKRFTRPARTLLHGFSAQPQISSDNCFLQWGFKTYRTSSLWNSSQSTSSSSQENNSAQSSLLPSMNEQSQKTQNISSFDSELFLEELDELPPLSPMQPISEEEAIQIIADPPLPPASFTLRDYVDHSETLQKLVLLGVDLSKIEKHPEAANLLLRLDFEKDIKQMLLFLKDVGIEDNQLGAFLTKNHAIFSEDLENLKTRVAYLHSKNFSKADVAQMVRKAPFLLNFSVERLDNRLGFFQKELELSVKKTRDLVVRLPRLLTGSLEPVKENMKVYRLELGFKHNEIQHMITRIPKMLTANKMKLTETFDFVHNVMSIPHHIIVKFPQVFNTRLFKVKERHLFLTYLGRAQYDPAKPNYISLDKLVSIPDEIFCEEIAKASVQDFEKFLKTL [MTERF3]
solubility change mitosis (log2) (HeLa Kyoto [1]): -0.167 | solubility in G1/S (log2) (HeLa Kyoto [2]): 0.238 | thermal stability score (HeLa Kyoto [3]; [5]): -0.741 | thermal stability score (HeLa Kyoto [3]; cell cycle stage: mitosis): 0.517 | melting temperature (HeLa Kyoto [4]; cell cycle stage: G1/S): 49.7 °C | melting temperature (HeLa Kyoto [4]; cell cycle stage: mitosis): 50.3 °C

MNAGSDPVVIVSAARTIIGSFNGALAAVPVQDLGSTVIKEVLKRATVAPEDVSEVIFGHVLAAGCGQNPVRQASVGAGIPYSVPAWSCQMICGSGLKAVCLAVQSIGIGDSSIVVAGGMENMSKAPHLAYLRTGVKIGEMPLTDSILCDGLTDAFHNCHMGITAENVAKKWQVSREDQDKVAVLSQNRTENAQKAGHFDKEIVPVLVSTRKGLIEVKTDEFPRHGSNIEAMSKLKPYFLTDGTGTVTPANASGINDGAAAVVLMKKSEADKRGLTPLARIVSWSQVGVEPSIMGIGPIPAIKQAVTKAGWSLEDVDIFEINEAFAAVSAAIVKELGLNPEKVNIEGGAIALGHPLGASGCRILVTLLHTLERMGRSRGVAALCIGGGMGIAMCVQRE [ACAT2]
solubility change mitosis (log2) (HeLa Kyoto [1]): -0.0395 | solubility in G1/S (log2) (HeLa Kyoto [2]): 0.305 | thermal stability score (HeLa Kyoto [3]; [5]): -0.261 | thermal stability score (HeLa Kyoto [3]; cell cycle stage: mitosis): -1.17 | melting temperature (HeLa Kyoto [4]; cell cycle stage: G1/S): 58.4 °C | melting temperature (HeLa Kyoto [4]; cell cycle stage: mitosis): 58.2 °C

DST
solubility change mitosis (log2) (HeLa Kyoto [1]): 0.045 | solubility in G1/S (log2) (HeLa Kyoto [2]): -0.363 | thermal stability score (HeLa Kyoto [3]; [5]): 0.147 | thermal stability score (HeLa Kyoto [3]; cell cycle stage: mitosis): 1.16 | melting temperature (HeLa Kyoto [4]; cell cycle stage: G1/S): 49.1 °C | melting temperature (HeLa Kyoto [4]; cell cycle stage: mitosis): 49.2 °C

YLPM1
solubility change mitosis (log2) (HeLa Kyoto [1]): 0.495 | solubility in G1/S (log2) (HeLa Kyoto [2]): -0.708 | thermal stability score (HeLa Kyoto [3]; [5]): 0.777 | thermal stability score (HeLa Kyoto [3]; cell cycle stage: mitosis): 0.487 | melting temperature (HeLa Kyoto [4]; cell cycle stage: G1/S): 48.3 °C | melting temperature (HeLa Kyoto [4]; cell cycle stage: mitosis): 48.3 °C
